Experiment [1] has as its target T1, human amylin receptor (calcitonin receptor co-expressed with receptor activity modifying protein, RAMP3) (human, UniProt P30988 25-474; O60896 24-148).
T1 sequence (looked up) 1: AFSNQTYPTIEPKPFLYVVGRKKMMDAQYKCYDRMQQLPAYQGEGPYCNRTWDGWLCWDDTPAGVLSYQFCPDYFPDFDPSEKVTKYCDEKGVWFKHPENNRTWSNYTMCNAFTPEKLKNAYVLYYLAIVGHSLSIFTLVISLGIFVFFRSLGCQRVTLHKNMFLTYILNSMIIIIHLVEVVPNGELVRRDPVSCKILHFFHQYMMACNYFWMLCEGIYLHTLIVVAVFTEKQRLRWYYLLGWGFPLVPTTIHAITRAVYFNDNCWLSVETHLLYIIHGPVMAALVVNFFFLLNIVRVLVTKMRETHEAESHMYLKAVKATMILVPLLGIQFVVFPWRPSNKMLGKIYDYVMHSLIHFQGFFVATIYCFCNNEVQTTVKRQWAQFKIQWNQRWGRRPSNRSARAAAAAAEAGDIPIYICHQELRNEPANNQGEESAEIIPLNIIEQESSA
T1 sequence (looked up) 2: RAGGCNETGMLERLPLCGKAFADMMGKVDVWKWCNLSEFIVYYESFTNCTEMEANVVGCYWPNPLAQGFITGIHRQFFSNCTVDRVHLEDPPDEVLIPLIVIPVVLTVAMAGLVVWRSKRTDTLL
In words: cell-based or functional assay.

Experiment [2] addresses T2, human calcitonin receptor (human, UniProt P30988 25-474).
T2 sequence (looked up): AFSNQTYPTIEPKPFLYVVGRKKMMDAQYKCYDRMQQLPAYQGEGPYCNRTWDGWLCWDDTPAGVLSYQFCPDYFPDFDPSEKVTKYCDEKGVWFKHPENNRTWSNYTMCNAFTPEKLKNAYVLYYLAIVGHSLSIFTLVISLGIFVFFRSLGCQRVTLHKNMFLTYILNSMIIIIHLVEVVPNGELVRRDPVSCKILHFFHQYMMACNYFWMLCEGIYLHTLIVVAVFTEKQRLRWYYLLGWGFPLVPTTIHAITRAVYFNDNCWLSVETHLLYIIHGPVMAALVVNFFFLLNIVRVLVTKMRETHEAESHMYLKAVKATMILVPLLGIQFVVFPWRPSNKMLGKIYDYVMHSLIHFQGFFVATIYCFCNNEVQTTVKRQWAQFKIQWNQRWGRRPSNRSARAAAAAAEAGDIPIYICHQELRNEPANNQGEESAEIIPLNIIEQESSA
In words: cell-based or functional assay.

Numbered stars: 1 amine (or outer) side, 2 acyl side, 3 side chain; on linkers, the order of the positions; unused ones are H or OH. Bridge positions count the residues as written; N and C are the ends. Square brackets hold non-standard residues; d marks the D form. Side chains are listed from the residue outwards. Ends that are not written are not given here. * marks the point of attachment. C18 diacid = O=C(O)CCCCCCCCCCCCCCCCC(=O)*; γGlu = O=C(O)[C@H](CCC(=O)[*:2])N[*:1]; AEEA = NCCOCCOCC(=O)O; Aib = CC(C)(N)C(=O)O

B1: Peptide 45 (SEQ ID NO: 45) (peptide)
peptide: K([AEEA-AEEA-γGlu-C18 diacid])CNTATCATQRLANFLRHSS[Aib]NFGPILPPTEVGSNTY-NH2
modifications: disulfide 2-7; N-terminus assumed
SMILES: CC[C@H](C)[C@H](NC(=O)[C@@H]1CCCN1C(=O)CNC(=O)[C@H](Cc1ccccc1)NC(=O)[C@H](CC(N)=O)NC(=O)C(C)(C)NC(=O)[C@H](CO)NC(=O)[C@H](CO)NC(=O)[C@H](Cc1c[nH]cn1)NC(=O)[C@H](CCCNC(=N)N)NC(=O)[C@H](CC(C)C)NC(=O)[C@H](Cc1ccccc1)NC(=O)[C@H](CC(N)=O)NC(=O)[C@H](C)NC(=O)[C@H](CC(C)C)NC(=O)[C@H](CCCNC(=N)N)NC(=O)[C@H](CCC(N)=O)NC(=O)[C@@H](NC(=O)[C@H](C)NC(=O)[C@@H]1CSSC[C@H](NC(=O)[C@@H](N)CCCCNC(=O)COCCOCCNC(=O)COCCOCCNC(=O)CC[C@H](NC(=O)CCCCCCCCCCCCCCCCC(=O)O)C(=O)O)C(=O)N[C@@H](CC(N)=O)C(=O)N[C@@H]([C@@H](C)O)C(=O)N[C@@H](C)C(=O)N[C@@H]([C@@H](C)O)C(=O)N1)[C@@H](C)O)C(=O)N[C@@H](CC(C)C)C(=O)N1CCC[C@H]1C(=O)N1CCC[C@H]1C(=O)N[C@H](C(=O)N[C@@H](CCC(=O)O)C(=O)N[C@H](C(=O)NCC(=O)N[C@@H](CO)C(=O)N[C@@H](CC(N)=O)C(=O)N[C@H](C(=O)N[C@@H](Cc1ccc(O)cc1)C(N)=O)[C@@H](C)O)C(C)C)[C@@H](C)O
With B1, the “EC50 (cAMP production)” value came to 588 pM in experiment [1] and 16900 pM in experiment [2]. In addition, in experiment [1], the “Ratio (EC50 hCTR / EC50 hAMYR3)” value is 29.

B2: Peptide 46 (SEQ ID NO: 46) (peptide)
peptide: K([γGlu-C18 diacid])KCNTATCATQRLAHFLVHSS[Aib]NFGPILPPTNVGSNTY-NH2
modifications: disulfide 3-8; N-terminus assumed
SMILES: CC[C@H](C)[C@H](NC(=O)[C@@H]1CCCN1C(=O)CNC(=O)[C@H](Cc1ccccc1)NC(=O)[C@H](CC(N)=O)NC(=O)C(C)(C)NC(=O)[C@H](CO)NC(=O)[C@H](CO)NC(=O)[C@H](Cc1c[nH]cn1)NC(=O)[C@@H](NC(=O)[C@H](CC(C)C)NC(=O)[C@H](Cc1ccccc1)NC(=O)[C@H](Cc1c[nH]cn1)NC(=O)[C@H](C)NC(=O)[C@H](CC(C)C)NC(=O)[C@H](CCCNC(=N)N)NC(=O)[C@H](CCC(N)=O)NC(=O)[C@@H](NC(=O)[C@H](C)NC(=O)[C@@H]1CSSC[C@H](NC(=O)[C@H](CCCCN)NC(=O)[C@@H](N)CCCCNC(=O)CC[C@H](NC(=O)CCCCCCCCCCCCCCCCC(=O)O)C(=O)O)C(=O)N[C@@H](CC(N)=O)C(=O)N[C@@H]([C@@H](C)O)C(=O)N[C@@H](C)C(=O)N[C@@H]([C@@H](C)O)C(=O)N1)[C@@H](C)O)C(C)C)C(=O)N[C@@H](CC(C)C)C(=O)N1CCC[C@H]1C(=O)N1CCC[C@H]1C(=O)N[C@H](C(=O)N[C@@H](CC(N)=O)C(=O)N[C@H](C(=O)NCC(=O)N[C@@H](CO)C(=O)N[C@@H](CC(N)=O)C(=O)N[C@H](C(=O)N[C@@H](Cc1ccc(O)cc1)C(N)=O)[C@@H](C)O)C(C)C)[C@@H](C)O
In the case of B2, in experiment [1], the “EC50 (cAMP production)” value was determined as 109 pM and the “Ratio (EC50 hCTR / EC50 hAMYR3)” value worked out at 3. In addition, in experiment [2], the “EC50 (cAMP production)” value turned out to be 362 pM.

Source of the values: US20220204580A1 (AstraZeneca / MedImmune, published 2022).
